T1: Mis12 complex (Mis12C), full length: MIS12, PMF1, NSL1, DSN1 (human, UniProt Q9H081 1-205; Q6P1K2 1-205; Q96IY1 1-281; Q9H410 1-356)
T1 construct: MIS12, human, subunit of the Mis12 complex; PMF1, human, subunit of the Mis12 complex; NSL1, human, subunit of the Mis12 complex; DSN1, human, subunit of the Mis12 complex (DSN1^SORT-HIS); In BLI one partner was biotinylated by sortase (GGGG-biotin peptide); also called Mis12C^WT; wild-type Mis12C; source: Tnao38 insect cells (baculovirus from pBIG1A), purified (Talon, SEC); copies: + + +
T1 sequence (looked up) 1: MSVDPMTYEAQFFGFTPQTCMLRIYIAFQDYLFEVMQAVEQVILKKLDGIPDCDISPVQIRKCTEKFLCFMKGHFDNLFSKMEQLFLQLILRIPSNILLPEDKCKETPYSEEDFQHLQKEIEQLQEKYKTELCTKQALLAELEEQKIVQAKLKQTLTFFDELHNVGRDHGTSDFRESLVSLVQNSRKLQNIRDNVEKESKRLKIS
T1 sequence (looked up) 2: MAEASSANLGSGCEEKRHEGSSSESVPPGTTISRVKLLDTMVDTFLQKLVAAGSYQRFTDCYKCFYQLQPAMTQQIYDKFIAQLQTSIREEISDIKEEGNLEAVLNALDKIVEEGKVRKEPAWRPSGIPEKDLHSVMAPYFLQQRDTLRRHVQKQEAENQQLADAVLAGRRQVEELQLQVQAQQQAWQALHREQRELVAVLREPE
T1 sequence (looked up) 3: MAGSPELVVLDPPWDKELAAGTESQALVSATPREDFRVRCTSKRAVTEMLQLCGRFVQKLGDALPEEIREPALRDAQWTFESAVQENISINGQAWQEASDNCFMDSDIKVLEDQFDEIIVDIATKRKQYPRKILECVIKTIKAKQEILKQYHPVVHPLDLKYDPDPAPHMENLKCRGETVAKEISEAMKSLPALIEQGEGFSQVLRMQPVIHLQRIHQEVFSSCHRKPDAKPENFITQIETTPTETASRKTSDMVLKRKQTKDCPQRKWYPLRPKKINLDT
T1 sequence (looked up) 4: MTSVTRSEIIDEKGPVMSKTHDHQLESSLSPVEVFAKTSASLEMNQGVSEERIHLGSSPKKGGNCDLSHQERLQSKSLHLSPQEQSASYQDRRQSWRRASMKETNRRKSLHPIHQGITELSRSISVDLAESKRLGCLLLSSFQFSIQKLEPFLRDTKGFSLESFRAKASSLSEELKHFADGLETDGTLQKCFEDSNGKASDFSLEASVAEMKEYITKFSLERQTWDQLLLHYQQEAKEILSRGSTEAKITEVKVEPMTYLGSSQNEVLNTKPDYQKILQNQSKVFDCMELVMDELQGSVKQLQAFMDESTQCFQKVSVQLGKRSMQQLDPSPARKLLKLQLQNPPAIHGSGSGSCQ

T2: KNL1 residues 2,021–2,342 (human, UniProt Q8NG31 2021-2342)
T2 construct: KNL1 (CASC5), human, C-terminal region, residues 2,021–2,342; numbering of isoform 1 of the CASC5 gene; also called KNL1_(2,021–2,342); Knl1_(2,021–2,342); source: E. coli BL21(DE3)-Codon-plus-RIPL, purified (glutathione-agarose, TEV cleavage, SEC)
T2 sequence (looked up): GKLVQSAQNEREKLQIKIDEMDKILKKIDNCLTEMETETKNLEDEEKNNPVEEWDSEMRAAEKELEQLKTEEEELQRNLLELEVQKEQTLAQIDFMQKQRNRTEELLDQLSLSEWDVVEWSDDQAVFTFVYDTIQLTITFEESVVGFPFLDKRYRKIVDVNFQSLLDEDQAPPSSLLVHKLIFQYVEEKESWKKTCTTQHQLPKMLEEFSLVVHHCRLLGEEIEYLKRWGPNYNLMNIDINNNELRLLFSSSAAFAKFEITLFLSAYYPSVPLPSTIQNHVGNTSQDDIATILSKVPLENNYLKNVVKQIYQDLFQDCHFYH


Experiments:
Conditions in all cases: both partners purified
[1] = target: T1, Mis12 complex (Mis12C), full length: …; experiment: ITC; PEAQ-ITC; 50 mM HEPES pH 8.0, 150 mM NaCl, 1 mM TCEP; 19 injections; one-site binding fit
[2] = target: T1, Mis12 complex (Mis12C), full length: …; experiment: BLI; Octet SA biosensors loaded with the biotinylated ligand, analyte at different concentrations; 25 °C; 50 mM HEPES pH 8.0, 150 mM NaCl, 2 mM TCEP, 0.05% Tween-20; which partner was loaded is not given
[3] = target: T2, KNL1 residues 2,021–2,342; experiment: cryo-EM structure; eight-subunit KMN (full-length Mis12C, SPC24 109–197/SPC25 92–224, ZWINT, KNL1 2,021–2,342), 0.3 mg/ml with 0.003% Triton; reconstruction at 4.5 Å; model fitted from known structures and AF2 predictions and refined against the map

Binder | Kd [1] [nM] | Kd [2] [nM] | binding result [3]
KNL1 residues 2,026–2,342 (domain or fragment, human, UniProt Q8NG31 2026-2342, looked up, numbering of isoform 1 of the CASC5 gene; also called KNL1^WT; source: E. coli BL21(DE3)-Codon-plus-RIPL, purified (glutathione-agarose, TEV cleavage, SEC)) SAQNEREKLQIKIDEMDKILKKIDNCLTEMETETKNLEDEEKNNPVEEWDSEMRAAEKELEQLKTEEEELQRNLLELEVQKEQTLAQIDFMQKQRNRTEELLDQLSLSEWDVVEWSDDQAVFTFVYDTIQLTITFEESVVGFPFLDKRYRKIVDVNFQSLLDEDQAPPSSLLVHKLIFQYVEEKESWKKTCTTQHQLPKMLEEFSLVVHHCRLLGEEIEYLKRWGPNYNLMNIDINNNELRLLFSSSAAFAKFEITLFLSAYYPSVPLPSTIQNHVGNTSQDDIATILSKVPLENNYLKNVVKQIYQDLFQDCHFYH | ~1.6 | ~2 | –
PMF1 (subunit of Mis12C in the KMN structure) (natural protein, human, UniProt Q6P1K2 1-205, looked up, PMF1, human; source: Tnao38 insect cells (baculovirus), co-expressed in Mis12C, purified (Talon, SEC)) MAEASSANLGSGCEEKRHEGSSSESVPPGTTISRVKLLDTMVDTFLQKLVAAGSYQRFTDCYKCFYQLQPAMTQQIYDKFIAQLQTSIREEISDIKEEGNLEAVLNALDKIVEEGKVRKEPAWRPSGIPEKDLHSVMAPYFLQQRDTLRRHVQKQEAENQQLADAVLAGRRQVEELQLQVQAQQQAWQALHREQRELVAVLREPE | – | – | binds
NSL1 (subunit of Mis12C in the KMN structure) (natural protein, human, UniProt Q96IY1 1-281, looked up, NSL1, human; source: Tnao38 insect cells (baculovirus), co-expressed in Mis12C, purified (Talon, SEC)) MAGSPELVVLDPPWDKELAAGTESQALVSATPREDFRVRCTSKRAVTEMLQLCGRFVQKLGDALPEEIREPALRDAQWTFESAVQENISINGQAWQEASDNCFMDSDIKVLEDQFDEIIVDIATKRKQYPRKILECVIKTIKAKQEILKQYHPVVHPLDLKYDPDPAPHMENLKCRGETVAKEISEAMKSLPALIEQGEGFSQVLRMQPVIHLQRIHQEVFSSCHRKPDAKPENFITQIETTPTETASRKTSDMVLKRKQTKDCPQRKWYPLRPKKINLDT | – | – | binds

— article PMC11189300, “Structure of the human KMN complex and implications for regulation of its assembly” (Nature Structural & Molecular Biology, 2024)
